The results in this text go back to patent US20200262867A1 (WNTRX PHARMACEUTICALS, published 2020).

T1: β-catenin (UniProt P35222 1-781, limits assumed)
T1 construct: also called beta-catenin
T1 sequence (looked up): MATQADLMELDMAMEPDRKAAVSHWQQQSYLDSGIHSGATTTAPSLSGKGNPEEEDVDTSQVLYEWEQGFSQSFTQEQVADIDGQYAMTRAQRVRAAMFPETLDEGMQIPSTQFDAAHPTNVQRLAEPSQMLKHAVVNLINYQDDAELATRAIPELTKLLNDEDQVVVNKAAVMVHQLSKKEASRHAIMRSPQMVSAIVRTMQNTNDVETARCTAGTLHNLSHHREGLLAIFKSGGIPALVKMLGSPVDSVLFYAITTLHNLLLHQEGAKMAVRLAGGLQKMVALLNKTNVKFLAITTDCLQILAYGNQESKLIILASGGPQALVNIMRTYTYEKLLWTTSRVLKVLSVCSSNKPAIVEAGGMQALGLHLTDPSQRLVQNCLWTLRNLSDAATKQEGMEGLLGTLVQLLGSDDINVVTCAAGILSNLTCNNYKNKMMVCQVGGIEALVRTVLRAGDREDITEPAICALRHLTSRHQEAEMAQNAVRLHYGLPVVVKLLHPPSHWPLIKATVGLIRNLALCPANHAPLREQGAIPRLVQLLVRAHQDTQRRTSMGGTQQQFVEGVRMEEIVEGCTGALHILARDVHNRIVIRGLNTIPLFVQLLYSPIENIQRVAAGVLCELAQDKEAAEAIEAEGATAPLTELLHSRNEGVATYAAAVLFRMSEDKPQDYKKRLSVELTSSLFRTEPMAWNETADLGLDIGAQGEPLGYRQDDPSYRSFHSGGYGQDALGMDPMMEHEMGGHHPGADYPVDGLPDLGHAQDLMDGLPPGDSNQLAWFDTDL

B1: SEQ ID NO: 222 (peptide)
peptide: Ac-H[hArg]QRSLQTLR[S5]IQ[Cit][S5][Cha][2Nal]-NH2
modifications: staple 11-15
SMILES: CC[C@H](C)[C@@H]1NC(=O)[C@@](C)(NC(=O)[C@H](CCCNC(=N)N)NC(=O)[C@H](CC(C)C)NC(=O)[C@@H](NC(=O)[C@H](CCC(N)=O)NC(=O)[C@H](CC(C)C)NC(=O)[C@H](CO)NC(=O)[C@H](CCCNC(=N)N)NC(=O)[C@H](CCC(N)=O)NC(=O)[C@H](CCCCNC(=N)N)NC(=O)[C@H](Cc2c[nH]cn2)NC(C)=O)[C@@H](C)O)CCCC=CCCC[C@@](C)(C(=O)N[C@@H](CC2CCCCC2)C(=O)N[C@@H](Cc2ccc3ccccc3c2)C(N)=O)NC(=O)[C@H](CCCNC(N)=O)NC(=O)[C@H](CCC(N)=O)NC1=O
B2: SEQ ID NO: 190 (peptide)
peptide: Ac-HRQRSLQTLR[S5]IQ[NMeR][S5][Cha][2Nal]-NH2
modifications: staple 11-15
SMILES: CC[C@H](C)[C@@H]1NC(=O)[C@@](C)(NC(=O)[C@H](CCCNC(=N)N)NC(=O)[C@H](CC(C)C)NC(=O)[C@@H](NC(=O)[C@H](CCC(N)=O)NC(=O)[C@H](CC(C)C)NC(=O)[C@H](CO)NC(=O)[C@H](CCCNC(=N)N)NC(=O)[C@H](CCC(N)=O)NC(=O)[C@H](CCCNC(=N)N)NC(=O)[C@H](Cc2c[nH]cn2)NC(C)=O)[C@@H](C)O)CCCC=CCCC[C@@](C)(C(=O)N[C@@H](CC2CCCCC2)C(=O)N[C@@H](Cc2ccc3ccccc3c2)C(N)=O)NC(=O)[C@H](CCCNC(=N)N)N(C)C(=O)[C@H](CCC(N)=O)NC1=O
B3: SEQ ID NO: 215 (peptide)
peptide: Ac-[NMeH]RQRSLQTLR[S5]IQR[S5][Cha][2Nal]-NH2
modifications: staple 11-15
SMILES: CC[C@H](C)[C@@H]1NC(=O)[C@@](C)(NC(=O)[C@H](CCCNC(=N)N)NC(=O)[C@H](CC(C)C)NC(=O)[C@@H](NC(=O)[C@H](CCC(N)=O)NC(=O)[C@H](CC(C)C)NC(=O)[C@H](CO)NC(=O)[C@H](CCCNC(=N)N)NC(=O)[C@H](CCC(N)=O)NC(=O)[C@H](CCCNC(=N)N)NC(=O)[C@H](Cc2c[nH]cn2)N(C)C(C)=O)[C@@H](C)O)CCCC=CCCC[C@@](C)(C(=O)N[C@@H](CC2CCCCC2)C(=O)N[C@@H](Cc2ccc3ccccc3c2)C(N)=O)NC(=O)[C@H](CCCNC(=N)N)NC(=O)[C@H](CCC(N)=O)NC1=O
B4: SEQ ID NO: 191 (peptide)
peptide: Ac-HRQRSLQTLR[S5]IQR[S5][tBuAla][2Nal]-NH2
modifications: staple 11-15
SMILES: CC[C@H](C)[C@@H]1NC(=O)[C@@](C)(NC(=O)[C@H](CCCNC(=N)N)NC(=O)[C@H](CC(C)C)NC(=O)[C@@H](NC(=O)[C@H](CCC(N)=O)NC(=O)[C@H](CC(C)C)NC(=O)[C@H](CO)NC(=O)[C@H](CCCNC(=N)N)NC(=O)[C@H](CCC(N)=O)NC(=O)[C@H](CCCNC(=N)N)NC(=O)[C@H](Cc2c[nH]cn2)NC(C)=O)[C@@H](C)O)CCCC=CCCC[C@@](C)(C(=O)N[C@@H](CC(C)(C)C)C(=O)N[C@@H](Cc2ccc3ccccc3c2)C(N)=O)NC(=O)[C@H](CCCNC(=N)N)NC(=O)[C@H](CCC(N)=O)NC1=O
B5: SEQ ID NO: 223 (peptide)
peptide: HRQRSLQTLXXIQRXAA
modifications: H(homoArg)QRSLQTL(Cit)XIQRX(Cha)(2-Nal); X/X stapled, (S) α-methyl; N-terminal Ac; C-terminal NH2
B6: SEQ ID NO: 164 (peptide)
peptide: HRQRSLQTLR[S5]IQ[NMeR][S5][Cba][2Nal]
modifications: staple 11-15; not fully specified (residues 3, 7, N-terminus, C-terminus); printed as HR(N-methylQ)RSL(N-methylQ)TLRXIQ(N-methylR)X(CBA)(2-Nal), X/X stapled, (S) α-methyl, N-terminal Ac, C-terminal NH2

What is called IC50 is the concentration at which inhibition is half-maximal. A lower IC50 goes with greater potency.

Bridges are numbered along the chain shown (N, C = ends). Primed or numbered codes have the meaning given here. Where no end group is shown, it is not given here. Side-chain parts run from the residue outwards. [ ]: non-standard residue; d: D form. The star is where a group is joined. S5′ = (S)-2-(4'-pentenyl)alanine, olefinic stapling residue closed by ring-closing metathesis; NMeQ′ = N-methylglutamine (N-alpha-methyl, stereo named both D and L in the filing); PEG4″ = PEG4 (tetraethylene glycol) spacer; 2Nal = N[C@@H](Cc1ccc2ccccc2c1)C(=O)O; NMeH = CN[C@@H](Cc1c[nH]cn1)C(=O)O; NMeR = CN[C@@H](CCCNC(=N)N)C(=O)O; Palmitoyl = CCCCCCCCCCCCCCCC(=O)*; hArg = N=C(N)NCCCC[C@H](N)C(=O)O; tBuAla = CC(C)(C)C[C@H](N)C(=O)O; NMeQ = CN[C@@H](CCC(N)=O)C(=O)O; Cha = N[C@@H](CC1CCCCC1)C(=O)O; Cit = NC(=O)NCCC[C@H](N)C(=O)O; Cba = N[C@@H](CC1CCC1)C(=O)O; S5 = C=CCCC[C@](C)(N)C(=O)O; Nle = CCCC[C@H](N)C(=O)O; βAla = NCCC(=O)O

The target of the experiment is T1, β-catenin. The experiment in a line: ALPHA Screen (BCL9/β-catenin).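 Also: bead proximity readout with the polypeptide linked to donor beads and β-catenin fixed on acceptor beads, their binding bringing the beads close enough to emit signal.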
Source text: In this assay, a polypeptide is conjugated to a donor bead and its target protein (i.e., β-catenin) is attached to an acceptor bead. When the two beads are in proximity due to the binding of the polypeptide to the target protein, a signal is generated and the binding affinity of the polypeptide can be quantitatively calculated. The assay may be conducted in the presence or absence of an unconjugated control polypeptide.
Turning to {Palmitoyl-PEG4″}-HR[NMeQ′]RSL[NMeQ′]TLR[S5]IQR[S5][Cha][2Nal]-NH2 (staple 11-15; not fully specified) [SEQ ID NO: 207], the 50% inhibitory concentration (IC50) was 354 nM. As for LQTLR[Nle]IQR[Nle]L[2Nal]P [SEQ ID NO: 56], the figure is 10100 nM. Molecule {Palmitoyl-PEG4″}-L[NMeQ′]TLR[S5]IQR[S5][Cba][2Nal]-NH2 (staple 6-10; also: Q2 N-methyl: stated both D and L) [SEQ ID NO: 213] had a 50% inhibitory concentration (IC50) of 466 nM.

In turn, B1 returned a half-inhibitory concentration (IC50) of 742 nM. The same measure for HRERSLQTLRDIQRML[2Nal] [SEQ ID NO: 61]: 1380 nM; for RSLQTLR[Nle]IQR[Nle]L[2Nal] [SEQ ID NO: 58]: 2840 nM; for Ac-RE[S5]SLQ[S5]LR[S5]IQR[S5]L[2Nal]-NH2 (staple 10-14, 3-7; not fully specified; printed as REXSLQXLRZIQRZL(2-Nal)) [SEQ ID NO: 39]: 2200 nM. Consider Ac-EHRERSLQTLR[S5]IQR[S5]L[2Nal]-NH2 (staple 12-16; not fully specified; printed as EHRERSLQTLRXIQRXL(2-Nal)) [SEQ ID NO: 7], for which the half-inhibitory concentration (IC50) was found to be 810 nM.

On to Ac-EHRERSLQTLR[S5′]IQR[S5′][Cba][2Nal]-NH2 (staple 12-16; not fully specified; printed as EHRERSLQTLRXIQRX(CBA)(2-Nal)) [SEQ ID NO: 9], for which it took 1500 nM to reach half-maximal inhibition (IC50). The same measure for Ac-EHQERSLQTLR[S5]IQR[S5]L[2Nal]-NH2 (staple 12-16; not fully specified; printed as EHQERSLQTLRXIQRXL(2-Nal)) [SEQ ID NO: 12]: 4160 nM; for {Palmitoyl-PEG4″}-H[hArg]QRSLQTLR[S5]IQR[S5][Cha][2Nal]-NH2 (staple 11-15) [SEQ ID NO: 209]: 253 nM.

Consider Ac-QLEHRERSLQTLR[S5]IQR[S5]L[2Nal]-NH2 (staple 14-18; not fully specified; printed as QLEHRERSLQTLRXIQRXL(2-Nal)) [SEQ ID NO: 8], for which the IC50 was 770 nM. As for Ac-LQTLR[S5]IQR[S5]L[2Nal][βAla][βAla]-NH2 (staple 6-10; not fully specified; printed as LQTLRXIQRXL(2-Nal)(β-Ala)(β-Ala)) [SEQ ID NO: 34], the figure is 9620 nM; as for Ac-LQTLR[S5]IQA[S5]L[2Nal]AA-NH2 (staple 6-10; not fully specified; printed as LQTLRXIQAXL(2-Nal)AA) [SEQ ID NO: 27], 6120 nM. RSLQTLRDIQRML[2Nal] [SEQ ID NO: 57] came in with an IC50 of 13600 nM. As for RERSLQTLR[Nle]IQR[Nle]L[2Nal] [SEQ ID NO: 60], the figure is 2420 nM. As for Ac-HR[NMeQ]RSLQTLR[S5]IQR[S5][tBuAla][2Nal]-NH2 (staple 11-15; also: N-methylglutamine 3: D or L (filing names both)) [SEQ ID NO: 193], the figure is 323 nM.

As to B2, the IC50 was 271 nM. As for B3, the figure is 9520 nM. {Palmitoyl-PEG4″}-HRQRSLQTLR[S5]IQR[S5][Cba][2Nal]-NH2 (staple 11-15) [SEQ ID NO: 160] came in with a half-inhibitory concentration (IC50) of 361 nM. The same measure for LR[Nle]IQR[Nle]L[2Nal][βAla][βAla] [SEQ ID NO: 49]: 6710 nM; for B4: 322 nM. For B5, the IC50 is 573 nM. The same measure for RERSLQTLRDIQRML[2Nal] [SEQ ID NO: 59]: 5950 nM; for B6: 1480 nM. In the case of LQTLRDIQRML[2Nal]P [SEQ ID NO: 55], the concentration for half-maximal inhibition (IC50) was found to be 30300 nM. As for Ac-HRQRSLQTLR[S5]IQR[S5][Cba][2Nal]K([PEG4″-Palmitoyl])-NH2 (staple 11-15) [SEQ ID NO: 161], the figure is 791 nM. The same measure for Ac-QLEHRERSL[S5]TLR[S5]IQRML[2Nal]-NH2 (staple 10-14; not fully specified; printed as QLEHRERSLXTLRXIQRML(2-Nal)) [SEQ ID NO: 36]: 940 nM.
